The values that follow come from US20040265235A1, “Magnetic resonance contrast-enhancing agents and method for detecting and imaging artherosclerotic plaque” (priority 2003, published 2004).

The series can be described thus: MR T1 relaxivity of contrast agents. The class given is physicochemical. The following applies: globular versus elongated conformation. The protocol: A low relaxivity or long relaxation time is associated with an elongated molecule such as a highly substituted Gd-DTPA-PLL, in which the Gd can rotate rapidly, having a relaxivity of about 8 sec^−1 mM^−1. When the relaxivity of a peptide contrast agent was high, the uptake coefficient of such an agent was invariably low, evidently due to the absence of a reptation movement of the contrast agent molecule, resulting in the exclusion of the contrast agent from narrow passages. Thus, it is important to establish that the peptides being compared for optimum length are all of the same conformation. Relaxivity values of the Gd-PLL for various lengths were tested to be between 7.5 and 10 for average chain length of 92, 219, 455, 633, and 1163 residues, in a 2 Tesla magnet (2 T) at 80 MHz and 23° C.

In the case of albumin, the relaxivity result is “about 15 sec^−1 mM^−1”.
